Laboratory results published in patent US20180214548A1 (SHANGHAI YUNYI HEALTHCARE AND TECHNOLOGY, published 2018).

Assays:
[1] = biological target: T1, human PD-1^ECD-hFc protein (Immunogen A) (human, UniProt Q15116 25-167); test: protein-based receptor-ligand blocking ELISA: coated PD-1ECD-hFc, blocked ligand biotinylated PD-L2ECD, streptavidin-HRP
T1 construct: Biotinylated for the Octet assay; also called PD-1-hFc; hPD-1^ECD-hFc; not shown: human IgG Fc fragment (hFc)
Protocol: Purified PD-1^ECD-hFc (Example 2) was diluted with PBS to a final concentration of 1.0 ug/mL, and 100 uL diluted PD-1^ECD-hFc were added to each well of a 96-well plate that was then sealed with plastic film and incubated at 4° C. overnight. The plate was washed twice with wash buffer (PBS+0.01% (v/v) Tween 20) and incubated with blocking buffer (PBS+[…]) at room temperature for 2 hours. The blocking buffer was aspirated, and 50 uL purified anti-PD-1 antibodies from Example 2 were added to each well of 96-well plate. […] The plate was washed three times with wash buffer (PBS+0.01% (v/v) Tween 20). 100 uL HRP-conjugated streptavidin (Sigma) were then added to each well and incubated at 37° C. for 2 hours. The plate was then washed three times with wash buffer, and 100 uL TMB substrate were added to each well. After 30 minutes of incubation at room temperature, the reaction was stopped by adding 100 uL stop solution (0.1N HCl). The absorbance at OD450 nm was measured with an ELISA plate reader (384plus SpectraMax, Molecular Devices).

[2] = biological target: T2, full length human PD-1 on cells (human, UniProt Q15116 25-288); test: flow cytometry, CHO-K1-hPD-1 cells; antibody 100 nM
T2 construct: Also used here for PD-1 on human T cells/PBMC; also called CHO-K1-hPD-1; hPD-1
Text: (§1) CHO-K1 cells were stably transfected with pIRES plasmid containing the nucleic acid sequence encoding full length human PD-1 (see Example 2, step 2) to generate CHO-K1 cells stably expressing human PD-1 (herein referred to as CHO-K1-hPD-1 cells). Other CHO-K1 were stably transfected with pIRES plasmid containing the nucleic acid sequence encoding full length cyno PD-1 to generate CHO-K1 cells stably expressing cyno PD-1 (herein referred to as CHO-K1-cPD-1 cells). CHO-K1-hPD-1 and CHO-K1-cPD-1 cells were cultured and expanded in T-75 culture flasks to 90% confluence. The culture media was aspirated, and the cells were washed twice with HBSS (Hanks Balanced Salt Solution, Invitrogen). The cells were treated with enzyme-free cell dissociation solution (Versene solution, Invitrogen) and collected. The cells were then washed twice with HBSS, cell counts were determined, and cells were resuspended with HBSS at 2×10⁶ cells/mL. Goat serum was added to the cell suspension to a final concentration of 1%, and the cells were blocked for 30 minutes on ice and then washed twice with HBSS. The cells were collected after centrifugation and resuspended in FACS buffer (HBSS+1% BSA, v/v) at 2×10⁶ cells/mL. 100 uL of the cell suspension were then added to each well of 96-well plate. 100 uL of purified anti-PD-1 antibodies from Example 2 were added to each well of the 96-well plate and incubated for 2 hours on ice. […] The samples were washed three times with FACS buffer, and 100 uL fixation buffer (4% paraformaldehyde v/v) were added to each well and incubated for 10 minutes. The cells were then washed twice with FACS buffer and resuspended in 100 uL FACS buffer. The mean fluorescence intensity (MFI) was determined using FACS Calibur (BD), and the results are shown in FIGS. 7-8 and in Tables 10-11.

[3] = biological target: T3, cyno PD-1^ECD-hFc protein (cyno monkey, UniProt B0LAJ3 25-167); test: ELISA, coated cyno PD-1ECD-hFc; antibody 1 nM
T3 construct: Prepared by the method for Immunogen A; also called Cyno Monkey PD-1^ECD-hFc; cyno monkey PD-1-hFc; not shown: human IgG Fc fragment (hFc) and its junction to the ECD
Protocol: 100 uL of the diluted recombinant proteins were added to each well of 96-well plate. The plates were sealed with plastic film and incubated at 4° C. overnight. The plates were washed twice with wash buffer (PBS+0.01% (v/v) Tween20), and incubated with blocking buffer (PBS+0.01% (v/v) Tween20+1% (w/w) BSA) at room temperature for 2 hours. The blocking buffer was aspirated away, and 100 uL of purified anti-PD-1 antibodies were added to each well and incubated for 2 hours at 37° C. The plates were washed three times with wash buffer (PBS+0.01% (v/v) Tween20). HRP-conjugated secondary antibody (Sigma) was added to each well and incubated for 2 hours at 37° C. After the plates were washed three times with wash buffer, 100 uL TMB substrate was added to each well and incubated for 30 minutes at room temperature. 100 uL stop solution (0.1N HCl) was added to each well to stop the reaction. The absorbance at 450 nm was measured with an ELISA plate reader (384plus SpectraMax, Molecular Devices).

[4] = biological target: T2, full length human PD-1 on cells; test: flow cytometry, CHO-K1-hPD-1 cells; antibody 10 nM
Text: as §1

[5] = biological target: T2, full length human PD-1 on cells; test: flow cytometry, CHO-K1-hPD-1 cells; antibody 31.6 nM
Text: as §1

[6] = biological target: T2, full length human PD-1 on cells; test: flow cytometry, CHO-K1-hPD-1 cells; antibody 0.316 nM
Text: as §1

[7] = biological target: T2, full length human PD-1 on cells; test: flow cytometry, CHO-K1-hPD-1 cells; antibody 0.0316 nM
Text: as §1

[8] = biological target: T2, full length human PD-1 on cells; test: flow cytometry, CHO-K1-hPD-1 cells; antibody 3.16 nM
Text: as §1

T3 sequence (B0LAJ3 entry or part of it limits assumed): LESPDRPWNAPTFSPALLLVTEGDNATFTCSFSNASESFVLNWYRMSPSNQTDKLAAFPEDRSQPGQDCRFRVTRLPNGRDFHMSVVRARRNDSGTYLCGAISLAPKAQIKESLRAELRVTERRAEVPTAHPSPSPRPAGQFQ
T1 sequence (Q15116 25-167): as the sequence (B0LAJ3 entry or part of it limits assumed) above, with E2D, A10P, L19V, A35T, R75Q counted along it
T2 sequence (Q15116 25-288 limits assumed): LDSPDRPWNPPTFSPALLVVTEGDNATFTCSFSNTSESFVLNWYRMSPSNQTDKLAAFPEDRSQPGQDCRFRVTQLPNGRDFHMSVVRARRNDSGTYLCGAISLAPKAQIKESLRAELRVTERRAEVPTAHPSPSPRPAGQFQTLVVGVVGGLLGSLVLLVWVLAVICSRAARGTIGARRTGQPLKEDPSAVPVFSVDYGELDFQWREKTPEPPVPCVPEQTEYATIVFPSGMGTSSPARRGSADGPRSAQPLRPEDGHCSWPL

B1: chimeric anti-PD-1 antibody 21G8F11 (antibody, V domains shown)
VH: EVQLLESGGGLAQPGGSLRLSCAASGFSFNTYLMHWVRQAPGKGLEWVSAISGGGGNTYYADSVKGRFTISRDNSKNTLYLQMNSLRAEDTAVYYCAKENRIPVAPFDYWGQGTLVTVSS
VL: DIQMTQSPSTLSASVGDRVTITCRASQSISTWLAWYQQKPGKAPKLLIYKASSLESGVPSRFSGSGSGTEFTLTISSLQPDDLATYYCQQYNSFSWTFGQGTKVEIK
notes: Purified from hybridoma of Harbour H2L2 mice: human variable regions, rat constant regions
IC50 (read off the curve) [1]: ~0.6 µg/mL | Mean fluorescence intensity [2]: 661 | OD450 nm [3]: 2.45 | Mean fluorescence intensity [4]: 696

B2: chimeric anti-PD-1 antibody 32B5C7 (antibody, V domains shown)
VH: EVQLLESGGGLVQPGGSLRLSCAASGFTFSSYAMSWVRQAPGKGLEWVSTISGSGGTTYYADSVKGRFTISRDNSKNTLYLQMNSLRAEDTAVYYCTLTGDPDYWGQGTLVTVSS
VL: EIVLTQSPATLSLSPGERATLSCRASQSVSSYLAWYQQKPGQAPRLLIYDASKRATGIPARFSGSGSGTDFTLTISSLEPEDFAVYYCQQRNNWPLTFGGGTKVEIK
notes: as for B1
IC50 (read off the curve) [1]: ~2 nM | Mean fluorescence intensity [2]: 253 | Mean fluorescence intensity [5]: 241 | OD450 nm [3]: 1.03 | Mean fluorescence intensity [6]: 26.1 | Mean fluorescence intensity [7]: 2.1 | Mean fluorescence intensity [4]: 156 | Mean fluorescence intensity [8]: 97.5

B3: chimeric anti-PD-1 antibody 76G5B3 (antibody, V domains shown)
VH: QVQLVESGGGVVQPGRSLRLSCAASGFTFSDYGFHWVRQAPGKGLEWVAVIWYDGSNEYYTDSVKGRFTISRDNSKNTLYLQMNSLRAEDTAMYFCVVNPFDYWGQGTLVTVSS
VL: DIQMTQSPSSLSAFVGDRVTITCRASQGINHYLAWYQQKPGKAPNLLILAASTLLSGVPSRFGGRGSGTDFTLIISSLQPEDVATYYCQKYDSAPYTFGQGTKLEIK
notes: as for B1
IC50 (read off the curve) [1]: ~1 nM | Mean fluorescence intensity [2]: 443 | Mean fluorescence intensity [5]: 466 | OD450 nm [3]: 1.4 | Mean fluorescence intensity [6]: 76.8 | Mean fluorescence intensity [7]: 2.2 | Mean fluorescence intensity [4]: 435 | Mean fluorescence intensity [8]: 280
